Experiments:
Experiment in all cases: FRET or BRET; BRET saturation in live HEK293T cells; fixed Rluc donor plasmid (10 ng), increasing eYFP acceptor plasmid (0 to 500 ng); coelenterazine H; BRET50 as relative affinity
Settings in all cases: partners not purified
Rluc-Vpr (WT) = biological target: T1, Rluc-Vpr (WT) (HIV-1, UniProt P05928 1-96)
T1 construct: BRET donor; also called pCDNA3.1-Rluc-Vpr (WT); source: HEK293T, transfected, in live cells; not shown: renilla luciferase (Rluc), N-terminal, kept
T1 sequence: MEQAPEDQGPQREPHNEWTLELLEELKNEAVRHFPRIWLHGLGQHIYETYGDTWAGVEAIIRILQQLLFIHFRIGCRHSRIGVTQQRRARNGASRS

Rluc-Vpr (Q65R) = biological target: T2, Rluc-Vpr (Q65R) (HIV-1, UniProt P05928 1-96, Q65R)
T2 construct: BRET donor; also called the Q65R mutant; pCDNA3.1-Rluc-Vpr (Q65R); source: HEK293T, transfected, in live cells; not shown: renilla luciferase (Rluc), N-terminal, kept
T2 sequence: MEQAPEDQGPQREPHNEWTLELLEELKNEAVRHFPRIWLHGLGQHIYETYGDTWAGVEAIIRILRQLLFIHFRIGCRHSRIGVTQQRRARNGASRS

Rluc-Vpr (R80A) = biological target: T3, Rluc-Vpr (R80A) (HIV-1, UniProt P05928 1-96, R80A)
T3 construct: BRET donor; also called the R80A mutant; pCDNA3.1-Rluc-Vpr (R80A); source: HEK293T, transfected, in live cells; not shown: renilla luciferase (Rluc), N-terminal, kept
T3 sequence: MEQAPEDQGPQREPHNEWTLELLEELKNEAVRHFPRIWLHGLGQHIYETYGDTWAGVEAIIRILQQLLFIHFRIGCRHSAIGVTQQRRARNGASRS

B1: eYFP-Vpr (WT) (natural protein)
chain: MEQAPEDQGPQREPHNEWTLELLEELKNEAVRHFPRIWLHGLGQHIYETYGDTWAGVEAIIRILQQLLFIHFRIGCRHSRIGVTQQRRARNGASRS
notes: BRET acceptor; also called wild type eYFP-Vpr; pCDNA3.1-eYFP-Vpr(WT); source: HEK293T, transfected, in live cells; not shown: eYFP, N-terminal, kept
In the case of B1, the BRET50 (Rluc-Vpr (WT)) is reported as 0.397 fluorescence/luminescence, the BRET50 (Rluc-Vpr (Q65R)) is reported as 0.791 fluorescence/luminescence and the BRET50 (Rluc-Vpr (R80A)) is reported as 0.326 fluorescence/luminescence.

— article PMC2932712, “Formation of Mobile Chromatin-Associated Nuclear Foci Containing HIV-1 Vpr and VPRBP Is Critical for the Induction of G2 Cell Cycle Arrest” (PLoS Pathogens, 2010)
